Measurements published in patent publication US20240043504A1 (published 2024).

Tests used:
[1] = target: SARS-CoV-2 (2019-nCoV) Spike Protein (S1 Subunit, Fc Tag) (Sino 40591-V02H) (SARS-CoV-2, UniProt P0DTC2 16-685); experiment: Luminex bead binding, supernatant
[2] = target: SARS-CoV-2 (2019-nCoV) Spike Protein (S1 Subunit, His Tag) (Sino 40591-V08H) (SARS-CoV-2, UniProt P0DTC2 16-685); experiment: Luminex bead binding, supernatant

B1: mAb10998 (antibody, V domains shown)
VH: EVQLVESGGGLVHPGGSLRLSCAASGLTVSSNYMSWVRQAPGKGLEWVSVIYSGGSTYYADSVKGRFTISRHNSKNTLFLQMNSLRAEDTAVYYCARDRPITGTTLDVWGQGTTVTVSS
VL: DIQMTQSPSSLFASVGDRVTITCRASQSISSYLNWYQQKPGKAPKLLIYAASSLQSGVPSRFSGSGSGTDFTLTISSLQPEDFAFYYCQQTYSTPPITFGQGTRLEIK
[1]
  Binding signal (MFI): 724 MFI
[2]
  Binding signal (MFI): 717 MFI

B2: mAb11008 (antibody, V domains shown)
VH: EVQLVESGGGLVQPGGSLRLSCAASGFTVSSNYMTWVRQAPGKGLEWVSVIYSGGSTFYADSVKGRFTISRHNSENTLYLQMNSLRAEDTAVYYCARDLAAAGTDYWGQGALVTVSS
VL: DIQLTQSPSFLSASVGDRVTITCWASQGISSYLAWYQQKPGKAPKLLIYAASTLQSGVPSRFSGSGSGTEFTLTISSLQPDDFATYYCQHLNSYLYTFGQGTKLEIK
[1]
  Binding signal (MFI): 6880 MFI
[2]
  Binding signal (MFI): 1420 MFI
